Measurements from the supplement of paper PMC9112550, “Optimization of the antimicrobial peptide Bac7 by deep mutational scanning” (BMC Biology, 2022).

System: Escherichia coli TOP10
Test: shrunken log2 fold change of peptide-encoding DNA abundance (4.5 h post-induction vs induction); higher = less antimicrobial activity (less host growth inhibition)
Details: time post-induction: 4.5 h; library: site-saturation at positions 5, 18, 19, 20
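Also: peptides expressed intracellularly from a pBAD plasmid library in pooled LB shake-flask culture, induced with 0.3% L-arabinose, DNA abundance read by NGS, three biological replicates, DESeq2 with apeglm shrinkage.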

| Sequence | shrunken log2 fold change |
| --- | --- |
| RRIRIRPPRLPRPRPRPTVMPRP | -0.0131 |
| RRIRFRPPRLPRPRPRPTMYPRP | -0.459 |
| RRIRPRPPRLPRPRPRPELFPRP | 0.25 |
| RRIRRRPPRLPRPRPRPTDVPRP | -0.0348 |
| RRIRRRPPRLPRPRPRPKQCPRP | 0.0754 |
| RRIRRRPPRLPRPRPRPLINPRP | -0.0185 |
| RRIRGRPPRLPRPRPRPISSPRP | 0.393 |
| RRIRFRPPRLPRPRPRPMLKPRP | -0.527 |
| RRIRSRPPRLPRPRPRPRDTPRP | 0.0657 |
| RRIRPRPPRLPRPRPRPLFTPRP | -0.385 |
| RRIRIRPPRLPRPRPRPKCFPRP | -0.852 |
| RRIRDRPPRLPRPRPRPFENPRP | 0.115 |
| RRIRKRPPRLPRPRPRPDHFPRP | 0.0027 |
| RRIRPRPPRLPRPRPRPETLPRP | -0.0144 |
| RRIRPRPPRLPRPRPRPNAHPRP | 0.247 |
| RRIRVRPPRLPRPRPRPSYMPRP | -1.16 |
| RRIRYRPPRLPRPRPRPYIGPRP | -0.0919 |
| RRIRHRPPRLPRPRPRPEPGPRP | -0.044 |
| RRIRNRPPRLPRPRPRPMCLPRP | -0.0215 |
| RRIRRRPPRLPRPRPRPEHQPRP | 0.25 |
| RRIRKRPPRLPRPRPRPGWYPRP | -0.0717 |
| RRIRCRPPRLPRPRPRPSSPPRP | -0.461 |
| RRIRWRPPRLPRPRPRPVIPPRP | -0.0775 |
| RRIRERPPRLPRPRPRPGFNPRP | 0.0108 |
| RRIRYRPPRLPRPRPRPEPLPRP | 0.0319 |

| Sequence | shrunken log2 fold change |
| --- | --- |
| RRIRCRPPRLPRPRPRPEQKPRP | -0.0751 |
| RRIRDRPPRLPRPRPRPMQVPRP | 0.0758 |
| RRIRCRPPRLPRPRPRPWRLPRP | 0.0337 |
| RRIRPRPPRLPRPRPRPSTPPRP | -0.0766 |
| RRIRARPPRLPRPRPRPFHKPRP | -0.148 |
| RRIRQRPPRLPRPRPRPMRTPRP | 0.661 |
| RRIRPRPPRLPRPRPRPWGKPRP | 0.248 |
| RRIRIRPPRLPRPRPRPQRAPRP | -0.249 |
| RRIRIRPPRLPRPRPRPYCRPRP | 0.182 |
| RRIRFRPPRLPRPRPRPLDEPRP | -0.132 |
| RRIRPRPPRLPRPRPRPHMDPRP | -0.374 |
| RRIRTRPPRLPRPRPRPGHYPRP | -0.137 |
| RRIRRRPPRLPRPRPRPSNLPRP | 0.112 |
| RRIRSRPPRLPRPRPRPAPLPRP | 0.163 |
| RRIRTRPPRLPRPRPRPALWPRP | 0.213 |
| RRIRRRPPRLPRPRPRPGYCPRP | -0.0631 |
| RRIRIRPPRLPRPRPRPGWTPRP | 0.11 |
| RRIRRRPPRLPRPRPRPCPMPRP | -0.0862 |
| RRIRTRPPRLPRPRPRPETDPRP | -0.0144 |
| RRIRDRPPRLPRPRPRPSPAPRP | 0.0515 |
| RRIRNRPPRLPRPRPRPHCVPRP | 0.0245 |
| RRIRNRPPRLPRPRPRPPHEPRP | 0.256 |
| RRIRERPPRLPRPRPRPEQVPRP | -0.0135 |
| RRIRDRPPRLPRPRPRPWRMPRP | -0.397 |
| RRIRARPPRLPRPRPRPEDHPRP | 0.392 |

| Sequence | shrunken log2 fold change |
| --- | --- |
| RRIRGRPPRLPRPRPRPMCAPRP | 1.88 |
| RRIRMRPPRLPRPRPRPRGWPRP | 1.34 |
| RRIRHRPPRLPRPRPRPVEDPRP | -0.0354 |
| RRIRPRPPRLPRPRPRPIHHPRP | -0.454 |
| RRIRPRPPRLPRPRPRPEQDPRP | 0.0894 |
| RRIRVRPPRLPRPRPRPWEAPRP | 0.268 |
| RRIRSRPPRLPRPRPRPANKPRP | -0.283 |
| RRIRMRPPRLPRPRPRPPEPPRP | 0.296 |
| RRIRYRPPRLPRPRPRPNVTPRP | -0.573 |
| RRIRLRPPRLPRPRPRPLRKPRP | 0.183 |
| RRIRIRPPRLPRPRPRPNMAPRP | -0.344 |
| RRIRLRPPRLPRPRPRPPNWPRP | 0.377 |
| RRIRWRPPRLPRPRPRPWNTPRP | -0.195 |
| RRIRSRPPRLPRPRPRPSDGPRP | -0.124 |
| RRIRARPPRLPRPRPRPIVFPRP | -0.0956 |
| RRIRARPPRLPRPRPRPCRVPRP | -0.19 |
| RRIRPRPPRLPRPRPRPIDEPRP | -0.0401 |
| RRIRHRPPRLPRPRPRPGWVPRP | 0.0965 |
| RRIRCRPPRLPRPRPRPLNCPRP | -0.279 |
| RRIRRRPPRLPRPRPRPSSLPRP | -0.134 |
| RRIRMRPPRLPRPRPRPEKQPRP | 2.16 |
| RRIRARPPRLPRPRPRPVRAPRP | 0.924 |
| RRIRWRPPRLPRPRPRPTSMPRP | -0.0665 |
| RRIRFRPPRLPRPRPRPYFSPRP | -0.245 |
| RRIRMRPPRLPRPRPRPYGLPRP | -0.248 |

| Sequence | shrunken log2 fold change |
| --- | --- |
| RRIRWRPPRLPRPRPRPMKYPRP | -0.311 |
| RRIRSRPPRLPRPRPRPWHFPRP | -0.0226 |
| RRIRGRPPRLPRPRPRPQLCPRP | 0.0863 |
| RRIRIRPPRLPRPRPRPKHEPRP | 0.0924 |
| RRIRLRPPRLPRPRPRPIAAPRP | 0.272 |
| RRIRMRPPRLPRPRPRPYSAPRP | 0.0186 |
| RRIRARPPRLPRPRPRPWNSPRP | -0.222 |
| RRIRPRPPRLPRPRPRPVWTPRP | 0.224 |
| RRIRTRPPRLPRPRPRPTADPRP | 0.351 |
| RRIRSRPPRLPRPRPRPCCCPRP | -0.000964 |
| RRIRQRPPRLPRPRPRPIKEPRP | -0.023 |
| RRIRFRPPRLPRPRPRPMLMPRP | -0.0715 |
| RRIRARPPRLPRPRPRPNFSPRP | -0.0677 |
| RRIRFRPPRLPRPRPRPPTFPRP | -0.0402 |
| RRIRMRPPRLPRPRPRPSVHPRP | -0.0707 |
| RRIRQRPPRLPRPRPRPVTAPRP | -0.362 |
| RRIRSRPPRLPRPRPRPMREPRP | 0.142 |
| RRIRTRPPRLPRPRPRPLHAPRP | 0.143 |
| RRIRGRPPRLPRPRPRPSGSPRP | 0.128 |
| RRIRARPPRLPRPRPRPGVWPRP | 1.55 |
| RRIRERPPRLPRPRPRPLDTPRP | 0.213 |
| RRIRDRPPRLPRPRPRPSTIPRP | -0.295 |
| RRIRFRPPRLPRPRPRPICYPRP | 0.00889 |
| RRIRTRPPRLPRPRPRPDICPRP | 0.0407 |
| RRIRSRPPRLPRPRPRPWCDPRP | -0.238 |

| Sequence | shrunken log2 fold change |
| --- | --- |
| RRIRMRPPRLPRPRPRPSRVPRP | 0.885 |
| RRIRIRPPRLPRPRPRPHVNPRP | 2.48 |
| RRIRIRPPRLPRPRPRPSIKPRP | -0.64 |
| RRIRRRPPRLPRPRPRPQYPPRP | -0.444 |
| RRIRKRPPRLPRPRPRPTFSPRP | 0.148 |
| RRIRNRPPRLPRPRPRPTGFPRP | -0.0139 |
| RRIRFRPPRLPRPRPRPQPHPRP | 0.166 |
| RRIRWRPPRLPRPRPRPATYPRP | 0.0311 |
| RRIRKRPPRLPRPRPRPCENPRP | 0.0184 |
| RRIRERPPRLPRPRPRPMGPPRP | -0.0976 |
| RRIRYRPPRLPRPRPRPRVSPRP | -0.216 |
| RRIRWRPPRLPRPRPRPLLCPRP | 0.15 |
| RRIRYRPPRLPRPRPRPKPEPRP | -0.0857 |
| RRIRYRPPRLPRPRPRPLQPPRP | -0.499 |
| RRIRLRPPRLPRPRPRPFMLPRP | -0.356 |
| RRIRQRPPRLPRPRPRPFRAPRP | 0.0134 |
| RRIRWRPPRLPRPRPRPKVEPRP | -0.0433 |
| RRIRERPPRLPRPRPRPGERPRP | 0.104 |
| RRIRMRPPRLPRPRPRPLIPPRP | -0.0413 |
| RRIRWRPPRLPRPRPRPMFFPRP | 0.111 |
| RRIRHRPPRLPRPRPRPMVSPRP | -0.00841 |
| RRIRPRPPRLPRPRPRPNFRPRP | 0.156 |
| RRIRERPPRLPRPRPRPETAPRP | 0.0892 |
| RRIRNRPPRLPRPRPRPPNRPRP | 2.99 |
| RRIRHRPPRLPRPRPRPIHGPRP | -0.0135 |

| Sequence | shrunken log2 fold change |
| --- | --- |
| RRIRKRPPRLPRPRPRPETVPRP | 0.0854 |
| RRIRNRPPRLPRPRPRPWSWPRP | 0.266 |
| RRIRSRPPRLPRPRPRPWSEPRP | -0.196 |
| RRIRPRPPRLPRPRPRPQALPRP | 0.339 |
| RRIRDRPPRLPRPRPRPAPLPRP | 0.445 |
| RRIRSRPPRLPRPRPRPDRQPRP | -0.0702 |
| RRIRRRPPRLPRPRPRPFWWPRP | 0.528 |
| RRIRDRPPRLPRPRPRPVWLPRP | 0.105 |
| RRIRARPPRLPRPRPRPDRTPRP | 0.192 |
| RRIRHRPPRLPRPRPRPHSDPRP | 0.0468 |
| RRIRFRPPRLPRPRPRPCYDPRP | -0.0301 |
| RRIRGRPPRLPRPRPRPRAIPRP | 0.733 |
| RRIRSRPPRLPRPRPRPFQIPRP | 0.0213 |
| RRIRGRPPRLPRPRPRPFKDPRP | -0.681 |
| RRIRLRPPRLPRPRPRPKDCPRP | -0.495 |
| RRIRCRPPRLPRPRPRPICMPRP | -0.491 |
| RRIRPRPPRLPRPRPRPASAPRP | 0.441 |
| RRIRFRPPRLPRPRPRPYWTPRP | -0.651 |
| RRIRGRPPRLPRPRPRPWNKPRP | -0.306 |
| RRIRIRPPRLPRPRPRPTGSPRP | 0.087 |
| RRIRYRPPRLPRPRPRPVKGPRP | -0.015 |
| RRIRVRPPRLPRPRPRPTDSPRP | -0.115 |
| RRIRMRPPRLPRPRPRPERAPRP | 2.76 |
| RRIRKRPPRLPRPRPRPQPMPRP | 0.462 |
| RRIRQRPPRLPRPRPRPKWIPRP | -0.0524 |
